Measurements as given in paper PMC6283576, “Structural insight into substrate and product binding in an archaeal mevalonate kinase” (PLoS ONE, 2018).

Molecular target: the molecule itself
Assay: crystal structure; MmMK with mevalonate (2.10 Å) or 5-phosphomevalonate (2.46 Å); space group P2(1)2(1)2(1), two molecules in the asymmetric unit; 100 mM Bis-Tris pH 5.5, sodium potassium tartrate, PEG 8,000 or 10,000

B1: mevalonate kinase from Methanosarcina mazei (enzyme)
chain: MVSCSAPGKIYLFGEHAVVYGETAIACAVELRTRVRAELNDSITIQSQIGRTGLDFEKHPYVSAVIEKMRKSIPINGVFLTVDSDIPVGSGLGSSAAVTIASIGALNELFGFGLSLQEIAKLGHEIEIKVQGAASPTDTYVSTFGGVVTIPERRKLKTPDCGIVIGDTGVFSSTKELVANVRQLRESYPDLIEPLMTSIGKISRIGEQLVLSGDYASIGRLMNVNQGLLDALGVNILELSQLIYSARAAGAFGAKITGAGGGGCMVALTAPEKCNQVAEAVAGAGGKVTITKPTEQGLKVD
notes: mevalonate kinase (MmMK), Methanosarcina mazei; codon-optimized gene cloned into pSKB3 (modified pET28b); also called MmMK; MK; source: E. coli BL21(DE3), purified (Ni-NTA)
binding result: binds
